Results as given in patent publication US20250114463A1, “LIVER-TARGETED DRUG AND USE THEREOF” (HANMI PHARM. CO., LTD., priority 2021, published 2025).
Changes are numbered by the printed parent chain. Bridges are numbered along the chain shown (N, C = ends). Where no end group is shown, it is not given here. [ ]: non-standard residue; d: D form. Aib = CC(C)(N)C(=O)O

T1: human GIP receptor (human, UniProt P48546 22-466)
T1 sequence (looked up): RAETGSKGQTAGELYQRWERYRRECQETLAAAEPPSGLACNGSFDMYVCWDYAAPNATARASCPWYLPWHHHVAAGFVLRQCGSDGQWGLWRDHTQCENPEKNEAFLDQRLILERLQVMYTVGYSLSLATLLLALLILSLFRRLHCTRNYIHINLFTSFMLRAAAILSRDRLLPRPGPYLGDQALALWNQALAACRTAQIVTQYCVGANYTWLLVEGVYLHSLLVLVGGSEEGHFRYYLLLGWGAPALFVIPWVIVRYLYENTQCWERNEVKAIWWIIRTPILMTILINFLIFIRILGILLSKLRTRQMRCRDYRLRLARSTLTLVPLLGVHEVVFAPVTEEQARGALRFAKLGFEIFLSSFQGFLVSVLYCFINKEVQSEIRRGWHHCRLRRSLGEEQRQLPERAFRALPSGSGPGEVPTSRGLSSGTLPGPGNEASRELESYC

B1: triple agonist of SEQ ID NO: 34 (peptide)
peptide: H[Aib]QGTFTSDYSKYLDEKRQKEFVNWLLAQKC
modifications: bridge 16-20; not fully specified (C-terminus)
B2: triple agonist of SEQ ID NO: 36 (peptide)
peptide: H[Aib]QGTFTSDYSKYLCEKRQKEFVQWLLNGGPSSGAPPPSG
modifications: bridge 16-20; not fully specified (C-terminus)
B3: triple agonist of SEQ ID NO: 1 (peptide)
peptide: HXQGTFTSDVSSYLDGQAAKEFIAWLVKGC
HELM: PEPTIDE1{H.[Aib].Q.G.T.F.T.S.D.V.S.S.Y.L.D.G.Q.A.A.K.E.F.I.A.W.L.V.K.G.C.[am]}$$$$V2.0; N-terminus assumed
SMILES: CC[C@H](C)[C@H](NC(=O)[C@H](Cc1ccccc1)NC(=O)[C@H](CCC(=O)O)NC(=O)[C@H](CCCCN)NC(=O)[C@H](C)NC(=O)[C@H](C)NC(=O)[C@H](CCC(N)=O)NC(=O)CNC(=O)[C@H](CC(=O)O)NC(=O)[C@H](CC(C)C)NC(=O)[C@H](Cc1ccc(O)cc1)NC(=O)[C@H](CO)NC(=O)[C@H](CO)NC(=O)[C@@H](NC(=O)[C@H](CC(=O)O)NC(=O)[C@H](CO)NC(=O)[C@@H](NC(=O)[C@H](Cc1ccccc1)NC(=O)[C@@H](NC(=O)CNC(=O)[C@H](CCC(N)=O)NC(=O)C(C)(C)NC(=O)[C@@H](N)Cc1c[nH]cn1)[C@@H](C)O)[C@@H](C)O)C(C)C)C(=O)N[C@@H](C)C(=O)N[C@@H](Cc1c[nH]c2ccccc12)C(=O)N[C@@H](CC(C)C)C(=O)N[C@H](C(=O)N[C@@H](CCCCN)C(=O)NCC(=O)N[C@@H](CS)C(N)=O)C(C)C
B4: triple agonist of SEQ ID NO: 37 (peptide)
peptide: H[Aib]QGTFTSDYSKYLDECRQKEFVQWLLNGGPSSGAPPPSG
modifications: bridge 16-20; not fully specified (C-terminus)
B5: triple agonist of SEQ ID NO: 40 (peptide)
peptide: HXQGTFTSDKSKYLDERACQDFVQWLLDGGPSSGAPPPS
HELM: PEPTIDE1{H.[Aib].Q.G.T.F.T.S.D.K.S.K.Y.L.D.E.R.A.C.Q.D.F.V.Q.W.L.L.D.G.G.P.S.S.G.A.P.P.P.S.[am]}$$$$V2.0; N-terminus assumed
SMILES: CC(C)C[C@H](NC(=O)[C@H](CC(C)C)NC(=O)[C@H](Cc1c[nH]c2ccccc12)NC(=O)[C@H](CCC(N)=O)NC(=O)[C@@H](NC(=O)[C@H](Cc1ccccc1)NC(=O)[C@H](CC(=O)O)NC(=O)[C@H](CCC(N)=O)NC(=O)[C@H](CS)NC(=O)[C@H](C)NC(=O)[C@H](CCCNC(=N)N)NC(=O)[C@H](CCC(=O)O)NC(=O)[C@H](CC(=O)O)NC(=O)[C@H](CC(C)C)NC(=O)[C@H](Cc1ccc(O)cc1)NC(=O)[C@H](CCCCN)NC(=O)[C@H](CO)NC(=O)[C@H](CCCCN)NC(=O)[C@H](CC(=O)O)NC(=O)[C@H](CO)NC(=O)[C@@H](NC(=O)[C@H](Cc1ccccc1)NC(=O)[C@@H](NC(=O)CNC(=O)[C@H](CCC(N)=O)NC(=O)C(C)(C)NC(=O)[C@@H](N)Cc1c[nH]cn1)[C@@H](C)O)[C@@H](C)O)C(C)C)C(=O)N[C@@H](CC(=O)O)C(=O)NCC(=O)NCC(=O)N1CCC[C@H]1C(=O)N[C@@H](CO)C(=O)N[C@@H](CO)C(=O)NCC(=O)N[C@@H](C)C(=O)N1CCC[C@H]1C(=O)N1CCC[C@H]1C(=O)N1CCC[C@H]1C(=O)N[C@@H](CO)C(N)=O
B6: triple agonist of SEQ ID NO: 35 (peptide)
peptide: H[Aib]QGTFTSDYSIAMDEIHQKDFVNWLLNTKC
modifications: bridge 16-20; not fully specified (C-terminus)
B7: triple agonist of SEQ ID NO: 4 (peptide)
peptide: B3 peptide with D15L, A18Q, A19Q
HELM: PEPTIDE1{H.[Aib].Q.G.T.F.T.S.D.V.S.S.Y.L.L.G.Q.Q.Q.K.E.F.I.A.W.L.V.K.G.C.[am]}$$$$V2.0; N-terminus assumed
SMILES: CC[C@H](C)[C@H](NC(=O)[C@H](Cc1ccccc1)NC(=O)[C@H](CCC(=O)O)NC(=O)[C@H](CCCCN)NC(=O)[C@H](CCC(N)=O)NC(=O)[C@H](CCC(N)=O)NC(=O)[C@H](CCC(N)=O)NC(=O)CNC(=O)[C@H](CC(C)C)NC(=O)[C@H](CC(C)C)NC(=O)[C@H](Cc1ccc(O)cc1)NC(=O)[C@H](CO)NC(=O)[C@H](CO)NC(=O)[C@@H](NC(=O)[C@H](CC(=O)O)NC(=O)[C@H](CO)NC(=O)[C@@H](NC(=O)[C@H](Cc1ccccc1)NC(=O)[C@@H](NC(=O)CNC(=O)[C@H](CCC(N)=O)NC(=O)C(C)(C)NC(=O)[C@@H](N)Cc1c[nH]cn1)[C@@H](C)O)[C@@H](C)O)C(C)C)C(=O)N[C@@H](C)C(=O)N[C@@H](Cc1c[nH]c2ccccc12)C(=O)N[C@@H](CC(C)C)C(=O)N[C@H](C(=O)N[C@@H](CCCCN)C(=O)NCC(=O)N[C@@H](CS)C(N)=O)C(C)C
B8: triple agonist of SEQ ID NO: 39 (peptide)
peptide: HXQGTFTSDYSKYLDGQHAQCFVAWLLAGGGPSSGAPPPS
HELM: PEPTIDE1{H.[Aib].Q.G.T.F.T.S.D.Y.S.K.Y.L.D.G.Q.H.A.Q.C.F.V.A.W.L.L.A.G.G.G.P.S.S.G.A.P.P.P.S.[am]}$$$$V2.0; N-terminus assumed
SMILES: CC(C)C[C@H](NC(=O)[C@H](CC(C)C)NC(=O)[C@H](Cc1c[nH]c2ccccc12)NC(=O)[C@H](C)NC(=O)[C@@H](NC(=O)[C@H](Cc1ccccc1)NC(=O)[C@H](CS)NC(=O)[C@H](CCC(N)=O)NC(=O)[C@H](C)NC(=O)[C@H](Cc1c[nH]cn1)NC(=O)[C@H](CCC(N)=O)NC(=O)CNC(=O)[C@H](CC(=O)O)NC(=O)[C@H](CC(C)C)NC(=O)[C@H](Cc1ccc(O)cc1)NC(=O)[C@H](CCCCN)NC(=O)[C@H](CO)NC(=O)[C@H](Cc1ccc(O)cc1)NC(=O)[C@H](CC(=O)O)NC(=O)[C@H](CO)NC(=O)[C@@H](NC(=O)[C@H](Cc1ccccc1)NC(=O)[C@@H](NC(=O)CNC(=O)[C@H](CCC(N)=O)NC(=O)C(C)(C)NC(=O)[C@@H](N)Cc1c[nH]cn1)[C@@H](C)O)[C@@H](C)O)C(C)C)C(=O)N[C@@H](C)C(=O)NCC(=O)NCC(=O)NCC(=O)N1CCC[C@H]1C(=O)N[C@@H](CO)C(=O)N[C@@H](CO)C(=O)NCC(=O)N[C@@H](C)C(=O)N1CCC[C@H]1C(=O)N1CCC[C@H]1C(=O)N1CCC[C@H]1C(=O)N[C@@H](CO)C(N)=O
B9: triple agonist of SEQ ID NO: 38 (peptide)
peptide: XXQGTFTSDKSSYLDERAAQDFVQWLLDGGPSSGAPPPSS
HELM: PEPTIDE1{[O=C(Cc1c[nH]cn1)[*:2]].[Aib].Q.G.T.F.T.S.D.K.S.S.Y.L.D.E.R.A.A.Q.D.F.V.Q.W.L.L.D.G.G.P.S.S.G.A.P.P.P.S.S.[am]}$$$$V2.0
SMILES: CC(C)C[C@H](NC(=O)[C@H](CC(C)C)NC(=O)[C@H](Cc1c[nH]c2ccccc12)NC(=O)[C@H](CCC(N)=O)NC(=O)[C@@H](NC(=O)[C@H](Cc1ccccc1)NC(=O)[C@H](CC(=O)O)NC(=O)[C@H](CCC(N)=O)NC(=O)[C@H](C)NC(=O)[C@H](C)NC(=O)[C@H](CCCNC(=N)N)NC(=O)[C@H](CCC(=O)O)NC(=O)[C@H](CC(=O)O)NC(=O)[C@H](CC(C)C)NC(=O)[C@H](Cc1ccc(O)cc1)NC(=O)[C@H](CO)NC(=O)[C@H](CO)NC(=O)[C@H](CCCCN)NC(=O)[C@H](CC(=O)O)NC(=O)[C@H](CO)NC(=O)[C@@H](NC(=O)[C@H](Cc1ccccc1)NC(=O)[C@@H](NC(=O)CNC(=O)[C@H](CCC(N)=O)NC(=O)C(C)(C)NC(=O)Cc1c[nH]cn1)[C@@H](C)O)[C@@H](C)O)C(C)C)C(=O)N[C@@H](CC(=O)O)C(=O)NCC(=O)NCC(=O)N1CCC[C@H]1C(=O)N[C@@H](CO)C(=O)N[C@@H](CO)C(=O)NCC(=O)N[C@@H](C)C(=O)N1CCC[C@H]1C(=O)N1CCC[C@H]1C(=O)N1CCC[C@H]1C(=O)N[C@@H](CO)C(=O)N[C@@H](CO)C(N)=O

Each binder was assayed against T1, human GIP receptor (assay: cell-based or functional assay).

Binder	in vitro Activity Compared to Native Peptide (%), vs GIP
B1	0.6%
B2	0.2%
B3	< 0.1%
B4	2.2%
B5	< 0.1%
B6	1.3%
B7	< 0.1%
B8	< 0.1%

These binders were tested against human GCG receptor (human, UniProt P47871 26-477) (assay: cell-based or functional assay).
Chain of human GCG receptor (P47871 26-477): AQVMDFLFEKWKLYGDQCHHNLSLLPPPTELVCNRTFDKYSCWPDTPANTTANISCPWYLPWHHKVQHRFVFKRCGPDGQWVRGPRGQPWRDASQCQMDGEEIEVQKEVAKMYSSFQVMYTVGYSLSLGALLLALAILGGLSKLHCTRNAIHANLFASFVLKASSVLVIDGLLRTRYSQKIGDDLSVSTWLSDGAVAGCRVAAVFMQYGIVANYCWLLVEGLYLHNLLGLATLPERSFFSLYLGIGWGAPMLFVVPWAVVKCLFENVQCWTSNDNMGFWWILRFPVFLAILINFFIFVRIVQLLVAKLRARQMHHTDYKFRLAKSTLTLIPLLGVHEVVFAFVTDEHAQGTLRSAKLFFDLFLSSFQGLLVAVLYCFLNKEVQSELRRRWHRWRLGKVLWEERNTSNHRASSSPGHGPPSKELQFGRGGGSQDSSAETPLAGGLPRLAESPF

Binder	in vitro Activity Compared to Native Peptide (%), vs Glucagon
B1	0.92%
B2	0.39%
B3	< 0.1%
B4	6.21%
B5	< 0.1%
B6	< 0.1%
B7	< 0.1%
B8	0.53%

These binders were tested against human GLP-1 receptor (human, UniProt P43220 24-463) (assay: cell-based or functional assay).

Binder	in vitro Activity Compared to Native Peptide (%), vs GLP-1
B1	19.1%
B2	37.4%
B3	3.2%
B4	236%
B5	75.2%
B6	7.5%
B7	8.5%
B8	13.9%
B9	2.3%
